Source: patent US8809287B2, “Compositions and methods for altering Wnt autocrine signaling” (Icahn School of Medicine at Mount Sinai, priority 2004, dated 2014)
“Also recorded” adds a separate entry of the source.

Columns and labels:
Format in all cases: cell-based, human
keratin 18 = assay: RNA blot of keratin 18 in MDAMB157 cells; conditions: stable expression
Protocol: (§1) Total RNAs from MDAMB157 cells exogenously expressing vector alone, FRP1, or DKK1 were extracted using Triazol (Invitrogen), separated by agarose gel electrophoresis (1% agarose gel) and transferred to a nylon membrane (Hybond, Pharmacia). Probes were labeled by the Random Prime Labelling System method (Amersham Biosciences), and hybridization was performed overnight utilizing the Hybrisol I solution (Serologicals Corporation) according to the manufacturer's instructions. Normalization was performed utilizing a commercial human GADPH control probe (BD Biosciences Clontech). Probes were labelled with α-^32P-dCTP.
Since canonical Wnt signaling appears to be involved in maintaining epithelial progenitor cells of several tissues (van de Wetering et al. (2002) Cell 111:241-250; Alonso and Fuchs (2003) Genes Dev. 17:1189-1200; Reya et al. (2003) Nature 423:409-414; Polesskaya et al. (2003) Cell 113, 841-852), including the mouse mammary gland (Li et al. (2003) Proc Natl Acad Sci U.S.A. 100:15853-15858; Liu et al. (2004) Proc. Nat'l Acad. Sci. U.S.A. 101:4158-4163), we also investigated whether downregulation of Wnt signaling in MDAMB157 tumor cells affected their differentiated state. […] All of these findings provide evidence for a Wnt autocrine transforming mechanism in human tumor cells.

MDAMB157 cells [1] = assay: tBh-induced apoptosis (Annexin/PI FACS) in MDAMB157 cells; conditions: each concentration of tBh, over-expression vs vector
Protocol: (§2) To assess the effects of Wnt inhibition by FRP1 or DKK1 on the response of MDAMB157 cells to apoptotic stimuli, we exposed AB589 or MDAMB157 cells expressing either vector control, FRP1 or DKK1 to increasing concentrations of tert-butyl hydroperoxide (tBh) (Sigma) a known inducer of oxidative stress that causes DNA damage through reactive oxygen species (ROS) (Macip et al., (2003) Mol. Cell. Biol. 23:8576-8585), and analyzed the apoptotic response. Sub-confluent cultures were treated with increasing amounts of tert-butyl hydroperoxide (tBH) for 2 hours. Twenty-four hours later, cells were washed in PBS, trypsinized and incubated with Annexin and PI using the Annexin-V-Fluos Staining kit (Roche). Fluorescent stained cells were subjected to FACS (Beckton Dickinson FACScan) using Cell Quest 3.2 software (Beckton Dickinson) for acquisition and analysis.

uncomplexed β-catenin [2] = assay: Uncomplexed β-catenin in Wnt autocrine tumor cells (summary statements); conditions: summary of the Examples
Protocol: (§3) β-catenin levels were assessed using the GST-E-cadherin binding assay, which has been previously described (Bafico et al., (1998) Oncogene 16:2819-2825). Briefly, bacterially expressed GST-E-cadherin was purified with glutathione-Sepharose beads and incubated with 1 mg of each cell lysate. The GST-E-cadherin/[…]-catenin complex bound to the beads was recovered by centrifugation and analyzed by SDS-PAGE followed by immunoblotting. The uncomplexed β-catenin was detected using a monoclonal antibody to β-catenin (Transduction Laboratories). Unphosphorylated β-catenin was detected with a monoclonal antibody specific for β-catenin dephosphorylated at residues 27-37 (Alexis, Läufelfingen, Switzerland). FRP1-HA and DKK1-HA were detected with an anti-HA monoclonal antibody (Hybridoma Center, Mount Sinai School of Medicine, New York).

uncomplexed β-catenin [3] = assay: Uncomplexed β-catenin in MDAMB157 breast tumor cells; design: levels of uncomplexed β-catenin: dose or concentration left out as unconfirmed; conditions: for uncomplexed β-catenin levels: stable expression by retroviral mediated transduction
Protocol: as §3
MDAMB157 cell cultures were exposed to increasing concentrations of purified DKK1, and then were solubilized and analyzed for uncomplexed β-catenin using immunoblot analysis and an anti-[…]-catenin antibody as described in Example 3.
MDAMB157 cells were infected with vector alone, FRP1-HA (described in Example 1), or DKK1-HA (described in Example 1) retroviruses and marker selected. Uncomplexed β-catenin protein levels were analyzed using immunoblot analysis with an anti-β-catenin antibody as described in Example 3. Expression of FRP1-HA or DKK1-HA were assessed by immunblot analysis of lysates using an anti-HA monoclonal antibody (Hybridoma Center, Mount Sinai School of Medicine, New York).

AB589 = assay: Saturation density of AB589 cells; conditions: AB589 infected with retrovirus (data not shown)
AB589 cells = assay: tBh-induced apoptosis (Annexin/PI FACS) in AB589 cells
Protocol: as §2

H1355 = assay: tBh-induced apoptosis in H1355 NSCLC cells; conditions: H1355 NSCLC cells (data not shown)
Protocol: as §2
We have also tested the effects of tBh on lung tumor cells with autocrine Wnt signaling in the presence or absence of the Wnt antagonists FRP and DKK. […] These findings indicate that inhibition of a Wnt autocrine signaling mechanism in tumor cells by Wnt antagonists such as FRP or DKK would make them more sensitive to the killing effects of standard chemo or irradiation therapies. We noted that levels of expression of these antagonists decreased with passage of the transfected and marker selected tumor cells.

MDAMB157 cells [4] = assay: Saturation density (cell counts) of MDAMB157 cells; conditions: MDAMB157 over-expressing antagonist vs vector transduced parental cells
Protocol: MDAMB157 cells exogenously expressing either vector control, FRP1 or DKK I were transferred at 1.5×10^5 cells per well in 6-well plates. Cell counts were performed in duplicate at the indicated times, and values represent the mean of two independent experiments.

cyclin D1 = assay: Northern blot of cyclin D1 in MDAMB157 cells; conditions: stable expression (data not shown)
Protocol: (§4) Alterations in the expression of a number of genes identified as targets of canonical Wnt signaling have been reported, although it should be noted that there is variability among Wnt target genes in different cell systems (Giles et al., (2003). Biochim. Biophys. Acta 1653:1-24). To investigate the effects of FRP1 and DKK1 inhibition on gene expression in MDAMB157 breast tumor cells, Northern blot analysis was performed on representative Wnt transcriptional targets, including Myc (He et al., (1998) Science 281:1509-1512), the LEF-1 transcription factor (Filali et al., (2002) J. Biol. Chem. 277:33398-33410) and the dominant negative helix-loop-helix transcriptional regulator, Id2 (Rockman et al., (2001) J. Biol. Chem. 276:45113-45119).
as §1, with “α-^32P-dCTP. […]” for “α-^32P-dCTP.”

ID2 = assay: Northern blot of ID2 in MDAMB157 cells; conditions: stable expression
Protocol: as §4, §1

| Molecule | keratin 18 levels (keratin 18) | level of apoptosis (MDAMB157 cells [1]) | up regulated uncomplexed β-catenin levels (uncomplexed β-catenin [2]) | uncomplexed β-catenin levels (uncomplexed β-catenin [3]) | saturation density (AB589) | apoptotic responses compared to the vector infected cells (AB589 cells) | sensitivity to induction of apoptosis by tBh (H1355) | saturation density (MDAMB157 cells [4]) | levels of cyclin D1 (cyclin D1) | expression of ID2 (ID2) | levels of uncomplexed β-catenin (uncomplexed β-catenin [3]; increasing concentrations of purified DKK1) |
| --- | --- | --- | --- | --- | --- | --- | --- | --- | --- | --- | --- |
| FRP1: human secreted Frizzled Related Protein 1, Wnt antagonist; expressed from pBabe-derived retrovirus with carboxy-terminal HA tag (protein, UniProt Q8N474 32-314, looked up, C-terminal HA tag, human secreted Frizzled Related Protein 1, Wnt antagonist; expressed from pBabe-derived retrovirus with carboxy-terminal HA tag) Secreted frizzled-related …: SEYDYVSFQSDIGPYQSGRFYTKPPQCVDIPADLRLCHNVGYKKMVLPNLLEHETMAEVKQQASSWVPLLNKNCHAGTQVFLCSLFAPVCLDRPIYPCRWLCEAVRDSCEPVMQFFGFYWPEMLKCDKFPEGDVCIAMTPPNATEASKPQGTTVCPPCDNELKSEAIIEHLCASEFALRMKIKEVKKENGDKKIVPKKKKPLKLGPIKKKDLKKLVLYLKNGADCPCHQLDNLSHHFLIMGRKVKSQYLLTAIHKWDKKNKEFKNFMKKMKNHECPTFQSVFK | increase | statistically significant increase | down regulation | dramatic reduction | no detectable effect | no detectable differences | more sensitive to induction of apoptosis | decreased saturation density | did not observe significant changes | reduced | – |
| DKK1: Dickkopf-1, secreted Wnt antagonist protein that binds Wnt co-receptor LRP6; used purified, in conditioned media or retrovirally expressed with HA tag (protein, UniProt O94907 32-266, looked up, HA tag in some uses) Dickkopf-related protein 1: TLNSVLNSNAIKNLPPPLGGAAGHPGSAVSAAPGILYPGGNKYQTIDNYQPYPCAEDEECGTDEYCASPTRGGDAGVQICLACRKRRKRCMRHAMCCPGNYCKNGICVSSDQNHFRGEIEETITESFGNDHSTLDGYSRRTTLSSKMYHTKGQEGSVCLRSSDCASGLCCARHFWSKICKPVLKEGQVCTKHRRKGSHGLEIFQRCYCGEGLSCRIQKDHHQASNSSRLHTCQRH | increase | statistically significant increase | down regulation; also recorded: striking reduction | dramatic reduction | no detectable effect | no detectable differences | more sensitive to induction of apoptosis | decreased saturation density | did not observe significant changes | reduced | dose dependent, marked reduction |
